Laboratory results from US12325866B2, “Systems and methods for growing cells in vitro” (Yissum Research Development Company of the Hebrew …, priority 2016, dated 2025).

Experiments:
[1] = tested on: primary chicken embryonic fibroblasts (CEF); experiment: Proliferation of primary CEF in serum-free media / with supplements; assay type: cell-based; details: serum-free medium, or minimal medium plus supplement (EGF 5 ng/ml, PGE2 0.01 μM, GH 10 ng/ml)
Protocol: The CSIFs readily grow on tissue culture plastic in DMEM/F12 medium supplemented with 15% FBS, and 2 mM of […] (FIG. 2D). There are several serum-free medium formulations for the growth of human and mouse fibroblasts, including PCS-201-040 (ATCC) and […] To develop a serum-free medium that supports the culture of CEF and CS IF, the present inventor formulated a minimal medium composed of DMEM/F12 supplemented with 0.1 μM dexamethasone, 10 μg/ml insulin, 5.5 μg/ml transferrin, and 5 ng/ml selenium (ITS), 12 μM linoleic and 12 μM oleic acids, and 2 mM of […]. Cells were plated in FBS containing medium, and transferred to minimal medium after overnight attachment. Basal medium was supplemented with growth factors and hormones showing that while heparin and T3 had little effect of CSIF growth (data not shown), the addition of basic Fibroblast Growth Factor (bFGF, 10 ng/ml) was essential (FIGS. 3C and 3F), showing 20±2 hours doubling time (data not shown).

CSIF = experiment: Serum-free medium development: sulforhodamine B stain and protein content after 72 hours; assay type: cell-based, chicken; details: supplement added to minimal serum-free medium; bFGF 10 ng/ml, EGF 5 ng/ml, PGE2 0.01 μM, GH 10 ng/ml
Protocol: FIGS. 3A-F depict the development and identification of serum-free medium for CSIF propagation. Shown are sulforhodamine B stain (FIGS. 3A-E) and protein content quantification (FIG. 3F) following 72 hours of culture with 15% serum (“FBS”), minimal serum-free medium (MIN) alone (FIG. 3B) or with 10 ng/ml basic Fibroblast Growth Factor (bFGF, FIG. 3C), 5 ng/ml Epidermal Growth Factor (EGF, FIG. 3D), 0.01 μM Prostaglandin E2 (PGE2, FIG. 3E), or 10 ng/ml Growth Hormone. Serum-free medium (SFM) contained MIN medium supplemented with bFGF (10 ng/ml), EGF (5 ng/ml), and PGE2 ([…]).
To develop a serum-free medium that supports the culture of CEF and CS IF, the present inventor formulated a minimal medium composed of DMEM/F12 supplemented with 0.1 μM dexamethasone, 10 μg/ml insulin, 5.5 μg/ml transferrin, and 5 ng/ml selenium (ITS), 12 μM linoleic and 12 μM oleic acids, and 2 mM of L-Analyl-L-Glutamine. Cells were plated in FBS containing medium, and transferred to minimal medium after overnight attachment. Basal medium was supplemented with growth factors and hormones showing that while heparin and T3 had little effect of CSIF growth (data not shown), the addition of basic Fibroblast Growth Factor (bFGF, 10 ng/ml) was essential (FIGS. 3C and 3F), showing 20±2 hours doubling time (data not shown).

B1: EGF: epidermal growth factor (protein, UniProt P01133 23-1207, looked up)
Pro-epidermal growth factor: PQHWSCPEGTLAGNGNSTCVGPAPFLIFSHGNSIFRIDTEGTNYEQLVVDAGVSVIMDFHYNEKRIYWVDLERQLLQRVFLNGSRQERVCNIEKNVSGMAINWINEEVIWSNQQEGIITVTDMKGNNSHILLSALKYPANVAVDPVERFIFWSSEVAGSLYRADLDGVGVKALLETSEKITAVSLDVLDKRLFWIQYNREGSNSLICSCDYDGGSVHISKHPTQHNLFAMSLFGDRIFYSTWKMKTIWIANKHTGKDMVRINLHSSFVPLGELKVVHPLAQPKAEDDTWEPEQKLCKLRKGNCSSTVCGQDLQSHLCMCAEGYALSRDRKYCEDVNECAFWNHGCTLGCKNTPGSYYCTCPVGFVLLPDGKRCHQLVSCPRNVSECSHDCVLTSEGPLCFCPEGSVLERDGKTCSGCSSPDNGGCSQLCVPLSPVSWECDCFPGYDLQLDEKSCAASGPQPFLLFANSQDIRHMHFDGTDYGTLLSQQMGMVYALDHDPVENKIYFAHTALKWIERANMDGSQRERLIEEGVDVPEGLAVDWIGRRFYWTDRGKSLIGRSDLNGKRSKIITKENISQPRGIAVHPMAKRLFWTDTGINPRIESSSLQGLGRLVIASSDLIWPSGITIDFLTDKLYWCDAKQSVIEMANLDGSKRRRLTQNDVGHPFAVAVFEDYVWFSDWAMPSVMRVNKRTGKDRVRLQGSMLKPSSLVVVHPLAKPGADPCLYQNGGCEHICKKRLGTAWCSCREGFMKASDGKTCLALDGHQLLAGGEVDLKNQVTPLDILSKTRVSEDNITESQHMLVAEIMVSDQDDCAPVGCSMYARCISEGEDATCQCLKGFAGDGKLCSDIDECEMGVPVCPPASSKCINTEGGYVCRCSEGYQGDGIHCLDIDECQLGEHSCGENASCTNTEGGYTCMCAGRLSEPGLICPDSTPPPHLREDDHHYSVRNSDSECPLSHDGYCLHDGVCMYIEALDKYACNCVVGYIGERCQYRDLKWWELRHAGHGQQQKVIVVAVCVVVLVMLLLLSLWGAHYYRTQKLLSKNPKNPYEESSRDVRSRRPADTEDGMSSCPQPWFVVIKEHQDLKNGGQPVAGEDGQAADGSMQPTSWRQEPQLCGMGTEQGCWIPVSSDKGSCPQVMERSFHMPSYGTQTLEGGVEKPHSLLSANPLWQQRALDPPHQMELTQ
modifications: Pro-epidermal growth factor
[1]
  Proliferation of primary CEF: supported the proliferation
CSIF
  Effect on CSIF growth / proliferation: supported the proliferation
